# The supplement of paper PMC7877785
# ± gives the uncertainty stated by the source.
# Experiment: self-splicing fitness, log relative to wild type (ln ratio); higher = more splicing; Tetrahymena group I intron in knt gene, E. coli kanamycin selection, DiMSum; sequences stand for … in CUCUCU…GGAGGGAAAAGUUAUCAGGCAUGCACCUGGUAGCUAGUCUUUAAACCAAUAGAUUGCAUCGGUUUAAAAGGCAAGACCGUCAAAUUGCGGGAAAGGGGUCAACAGCCGUUCAGUACCAAGUCUCAGGGGAAACUUUGAGAUGGCCUUGCAAAGGGUAUGGUAAUAAGCUGACGGACAUGGUCCUAACCACGCAGCCAAGUCCUAAGUCAACAGAUCUUCUGUUGAUAUGGAUGCAGUUCACAGACUAAAUGUCGGUCGGGGAAGAUGUAUUCUUCUCAUAAGAUAUAGUCGGACCUCUCCUUAAUGGGAGCUAGCGGAUGAAGUGAUGCAACACUGGAGCCGCUGGGAACUAAUUUGUAUGCGAAAGUAUAUUGAUUAGUUUUGGAGUACUCGUGGUCG
# How it was run: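 Fitness was computed with DiMSum as the error-weighted combination of replicate fold changes, kanamycin versus none, each normalised to wild type. The library randomised all eight intron nucleotides of the P1ex region, with the intron placed in the knt kanamycin-resistance gene on pET-22b(+) in E. coli BL21(DE3). Six replicate transformations were grown overnight at 37°C or 30°C on LB agar with or without 25 μg/mL kanamycin, plus 100 μg/mL carbenicillin, 50 μM IPTG and 0.2% rhamnose. Pooled colonies were amplicon-sequenced on an Illumina HiSeq 2500.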
Sequence,self-splicing fitness (ln) (30 °C),self-splicing fitness (ln) (37 °C)
CGAUAGCAAUAUUACGGGGU,-3.87 ± 0.19,-3.11 ± 0.32
CGGCAGCAAUAUUACGGUUC,-2.16 ± 0.093,-0.799 ± 0.098
UUUGAGCAAUAUUACGGUGG,-2.98 ± 0.31,–
GCGGAGCAAUAUUACGCUUA,–,1.64 ± 0.37
GACGAGCAAUAUUACGGCAG,-2.04 ± 0.25,-2.51 ± 0.38
ACAAAGCAAUAUUACGACUU,-0.336 ± 0.06,0.0905 ± 0.079
GUACAGCAAUAUUACGGCGU,-0.577 ± 0.069,0.482 ± 0.085
UAAAAGCAAUAUUACGUUCC,-3.46 ± 0.3,-2.57 ± 0.29
CGUGAGCAAUAUUACGUUAG,-2.02 ± 0.081,-1 ± 0.094
ACCAAGCAAUAUUACGUAGA,-2.66 ± 0.14,-2.04 ± 0.16
CGACAGCAAUAUUACGAACA,-2.16 ± 0.14,-0.404 ± 0.11
CGGCAGCAAUAUUACGCACC,-2.89 ± 0.17,-2.05 ± 0.23
UCAUAGCAAUAUUACGACUA,-2.82 ± 0.29,-1.78 ± 0.24
UAGAAGCAAUAUUACGCAAU,-2.51 ± 0.16,-1.04 ± 0.24
ACAUAGCAAUAUUACGAGCC,-3.94 ± 0.36,-2.42 ± 0.28
AGCAAGCAAUAUUACGCGGC,-3.39 ± 0.34,-1.82 ± 0.19
UUUUAGCAAUAUUACGUGGU,-3.72 ± 0.35,-3.24 ± 0.42
CUCAAGCAAUAUUACGGAAA,-3.21 ± 0.28,-2.6 ± 0.25
GCUGAGCAAUAUUACGUGCU,-3.42 ± 0.12,-3.39 ± 0.2
UAGCAGCAAUAUUACGCGGG,-2.24 ± 0.14,-2.04 ± 0.2
UGCCAGCAAUAUUACGACCA,0.429 ± 0.1,0.0668 ± 0.13
GAUAAGCAAUAUUACGGUAA,-2.64 ± 0.22,-1.46 ± 0.15
ACAAAGCAAUAUUACGGCUU,-0.982 ± 0.084,-0.814 ± 0.12
GAACAGCAAUAUUACGGACA,-1.3 ± 0.1,-0.732 ± 0.09
AUUUAGCAAUAUUACGGAAC,-3.03 ± 0.3,-2.02 ± 0.31
UGCAAGCAAUAUUACGGGCC,-1.31 ± 0.12,-1.26 ± 0.14

Sequence,self-splicing fitness (ln) (30 °C),self-splicing fitness (ln) (37 °C)
CUACAGCAAUAUUACGAUCA,-1.82 ± 0.17,-1.49 ± 0.2
GUUGAGCAAUAUUACGCCCU,-1 ± 0.19,0.108 ± 0.25
UCGAAGCAAUAUUACGUCCU,-0.664 ± 0.12,-0.253 ± 0.15
GUCUAGCAAUAUUACGGCCG,–,-1.78 ± 0.35
AUAUAGCAAUAUUACGUCUG,-2.35 ± 0.1,-0.0249 ± 0.12
UGAUAGCAAUAUUACGACGA,-0.476 ± 0.16,0.0569 ± 0.18
GAUCAGCAAUAUUACGUAGA,-0.569 ± 0.08,-0.158 ± 0.14
GUAUAGCAAUAUUACGUUGA,-2.87 ± 0.21,-1.41 ± 0.18
GAAAAGCAAUAUUACGUAUG,-1.6 ± 0.079,-1.74 ± 0.12
CGGGAGCAAUAUUACGGAGC,-2.32 ± 0.37,-0.632 ± 0.25
AACGAGCAAUAUUACGCCUC,-2.71 ± 0.28,-1.53 ± 0.17
CUAUAGCAAUAUUACGAAAA,–,-2.17 ± 0.29
GUAAAGCAAUAUUACGCUGG,-0.164 ± 0.086,-0.981 ± 0.14
AACAAGCAAUAUUACGAGGC,-3.07 ± 0.15,-3.27 ± 0.28
CACUAGCAAUAUUACGCCGA,-2.8 ± 0.21,-1.49 ± 0.17
UACCAGCAAUAUUACGAAAG,-1.95 ± 0.15,-1.28 ± 0.15
CCCAAGCAAUAUUACGAGUA,-4.12 ± 0.18,-2.5 ± 0.14
GUACAGCAAUAUUACGUCGG,-3.45 ± 0.27,-2.4 ± 0.25
UGCUAGCAAUAUUACGGGCG,-1.45 ± 0.1,-1.82 ± 0.11
ACCAAGCAAUAUUACGUUCU,-1.56 ± 0.06,-0.915 ± 0.076
CAGAAGCAAUAUUACGGCGA,-1.43 ± 0.15,-1.5 ± 0.18
AGCGAGCAAUAUUACGCACG,-3.64 ± 0.45,–
CCAUAGCAAUAUUACGAGAC,-3.58 ± 0.3,-0.492 ± 0.17
UUUCAGCAAUAUUACGGAUG,-0.64 ± 0.064,0.256 ± 0.096
AGCUAGCAAUAUUACGUAGC,-1.84 ± 0.12,-2.46 ± 0.25
AACAAGCAAUAUUACGUGGU,-3.38 ± 0.12,-1.57 ± 0.1

Sequence,self-splicing fitness (ln) (30 °C),self-splicing fitness (ln) (37 °C)
GCGCAGCAAUAUUACGGGAC,-2.13 ± 0.097,0.393 ± 0.096
GGAAAGCAAUAUUACGCUAU,-2.74 ± 0.28,-2.11 ± 0.21
UAACAGCAAUAUUACGGUAC,-3.84 ± 0.2,-2.06 ± 0.13
GGCGAGCAAUAUUACGUCGG,-3.78 ± 0.33,-2.13 ± 0.28
GAAGAGCAAUAUUACGGGGC,-3.46 ± 0.28,-2.28 ± 0.26
CCGCAGCAAUAUUACGAAUU,-3.73 ± 0.19,-2.51 ± 0.2
CUCGAGCAAUAUUACGCGUC,–,-2.79 ± 0.32
UUUCAGCAAUAUUACGCAGU,-4.25 ± 0.31,-1.59 ± 0.17
UGGGAGCAAUAUUACGAGCU,-3.52 ± 0.37,-1.69 ± 0.25
UGGCAGCAAUAUUACGCUGU,-2.97 ± 0.15,-2.18 ± 0.21
AGAGAGCAAUAUUACGUGCA,-3.36 ± 0.26,-2.34 ± 0.24
ACCGAGCAAUAUUACGUAAC,-4.02 ± 0.32,-2.88 ± 0.35
UAUAAGCAAUAUUACGUUUU,-3.44 ± 0.23,-1.85 ± 0.15
UUUUAGCAAUAUUACGUGGC,-3.09 ± 0.42,–
UGUUAGCAAUAUUACGCGGG,-2.74 ± 0.29,-1.57 ± 0.26
CUACAGCAAUAUUACGCUAC,-3.78 ± 0.22,-2.25 ± 0.24
CGCCAGCAAUAUUACGGAAA,-1.48 ± 0.17,-1.93 ± 0.17
UGUGAGCAAUAUUACGUUCU,-3.79 ± 0.33,-3.12 ± 0.4
CGCUAGCAAUAUUACGAUCG,-1.17 ± 0.12,-0.644 ± 0.14
GGGCAGCAAUAUUACGACCG,-0.512 ± 0.14,0.369 ± 0.17
AGGCAGCAAUAUUACGGAGA,-2.91 ± 0.14,-2.61 ± 0.17
CUUGAGCAAUAUUACGAGGU,-2.39 ± 0.19,-2.42 ± 0.22
UUAUAGCAAUAUUACGGGCG,-1.4 ± 0.15,-1 ± 0.2
GCUUAGCAAUAUUACGAUGC,-1.43 ± 0.13,-0.976 ± 0.21
AGCCAGCAAUAUUACGGAAA,-1.88 ± 0.3,-1.3 ± 0.25
